# Experimental data taken from patent US20060263802A1 (CRUCELL HOLLAND B V, published 2006).
# Key:
# Test in all cases: PEPSCAN ELISA, looped peptide, antibody 10 µg/ml
# [1] = target: looped/cyclic peptide … (rabies virus strain ERA)
# [2] = target: looped/cyclic peptide … (rabies virus strain ERA); remark: listed apart in the source
# [3] = target: looped/cyclic peptide … (rabies virus strain ERA); remark: listed apart in the source
# [4] = target: looped/cyclic peptide … (rabies virus strain ERA); remark: listed apart in the source
# [5] = target: looped/cyclic peptide … (rabies virus strain ERA); remark: listed apart in the source
# [6] = target: looped/cyclic peptide … (rabies virus strain ERA); remark: listed apart in the source
# [7] = target: looped/cyclic peptide … (rabies virus strain ERA); remark: listed apart in the source
# [8] = target: looped/cyclic peptide … (rabies virus strain ERA); remark: listed apart in the source
# [9] = target: looped/cyclic peptide […] (rabies virus strain ERA)
# [10] = target: looped/cyclic peptide … (rabies virus strain ERA); remark: listed apart in the source
# [11] = target: looped/cyclic peptide … (rabies virus strain ERA); remark: listed apart in the source
# [12] = target: looped/cyclic peptide … (rabies virus strain ERA); remark: listed apart in the source
# [13] = target: looped/cyclic peptide … (rabies virus strain ERA); remark: listed apart in the source
# [14] = target: looped/cyclic peptide … (rabies virus strain ERA); remark: listed apart in the source
# [15] = target: looped/cyclic peptide … (rabies virus strain ERA); remark: listed apart in the source
# [16] = target: looped/cyclic peptide … (rabies virus strain ERA); remark: listed apart in the source
# [17] = target: looped/cyclic peptide … (rabies virus strain ERA); remark: listed apart in the source
# [18] = target: looped/cyclic peptide … (rabies virus strain ERA); remark: listed apart in the source
# [19] = target: looped/cyclic peptide … (rabies virus strain ERA); remark: listed apart in the source
# [20] = target: looped/cyclic peptide … (rabies virus strain ERA); remark: listed apart in the source
# [21] = target: looped/cyclic peptide … (rabies virus strain ERA); remark: listed apart in the source
# [22] = target: looped/cyclic peptide … (rabies virus strain ERA); remark: listed apart in the source
# [23] = target: looped/cyclic peptide … (rabies virus strain ERA); remark: listed apart in the source
# [24] = target: looped/cyclic peptide … (rabies virus strain ERA); remark: listed apart in the source
# [25] = target: looped/cyclic peptide … (rabies virus strain ERA); remark: listed apart in the source
# [26] = target: looped/cyclic peptide … (rabies virus strain ERA); remark: listed apart in the source
# [27] = target: looped/cyclic peptide … (rabies virus strain ERA); remark: listed apart in the source
# [28] = target: looped/cyclic peptide … (rabies virus strain ERA); remark: listed apart in the source
# [29] = target: looped/cyclic peptide … (rabies virus strain ERA); remark: listed apart in the source
# [30] = target: looped/cyclic peptide … (rabies virus strain ERA); remark: listed apart in the source
# [31] = target: looped/cyclic peptide … (rabies virus strain ERA); remark: listed apart in the source
# [32] = target: looped/cyclic peptide … (rabies virus strain ERA); remark: listed apart in the source
# [33] = target: looped/cyclic peptide … (rabies virus strain ERA); remark: listed apart in the source
# [34] = target: looped/cyclic peptide … (rabies virus strain ERA); remark: listed apart in the source
# [35] = target: looped/cyclic peptide … (rabies virus strain ERA); remark: listed apart in the source
# [36] = target: looped/cyclic peptide … (rabies virus strain ERA); remark: listed apart in the source
# [37] = target: looped/cyclic peptide … (rabies virus strain ERA); remark: listed apart in the source
# [38] = target: looped/cyclic peptide … (rabies virus strain ERA); remark: listed apart in the source
# [39] = target: looped/cyclic peptide … (rabies virus strain ERA); remark: listed apart in the source
# [40] = target: looped/cyclic peptide … (rabies virus strain ERA); remark: listed apart in the source
# [41] = target: looped/cyclic peptide … (rabies virus strain ERA); remark: listed apart in the source
# [42] = target: looped/cyclic peptide … (rabies virus strain ERA); remark: listed apart in the source
# [43] = target: looped/cyclic peptide … (rabies virus strain ERA); remark: listed apart in the source
# [44] = target: looped/cyclic peptide … (rabies virus strain ERA); remark: listed apart in the source
# [45] = target: looped/cyclic peptide … (rabies virus strain ERA); remark: listed apart in the source
# [46] = target: looped/cyclic peptide … (rabies virus strain ERA); remark: listed apart in the source
# [47] = target: looped/cyclic peptide … (rabies virus strain ERA); remark: listed apart in the source
# [48] = target: looped/cyclic peptide … (rabies virus strain ERA); remark: listed apart in the source
# [49] = target: looped/cyclic peptide … (rabies virus strain ERA); remark: listed apart in the source
# [50] = target: looped/cyclic peptide … (rabies virus strain ERA); remark: listed apart in the source
# [51] = target: looped/cyclic peptide … (rabies virus strain ERA); remark: listed apart in the source
# [52] = target: looped/cyclic peptide … (rabies virus strain ERA); remark: listed apart in the source
# [53] = target: looped/cyclic peptide … (rabies virus strain ERA); remark: listed apart in the source
# [54] = target: looped/cyclic peptide … (rabies virus strain ERA); remark: listed apart in the source
# [55] = target: looped/cyclic peptide … (rabies virus strain ERA); remark: listed apart in the source
# [56] = target: looped/cyclic peptide … (rabies virus strain ERA); remark: listed apart in the source
# [57] = target: looped/cyclic peptide … (rabies virus strain ERA); remark: listed apart in the source
# [58] = target: looped/cyclic peptide … (rabies virus strain ERA); remark: listed apart in the source
# [59] = target: looped/cyclic peptide … (rabies virus strain ERA); remark: listed apart in the source
# [60] = target: looped/cyclic peptide … (rabies virus strain ERA); remark: listed apart in the source
# [61] = target: looped/cyclic peptide … (rabies virus strain ERA); remark: listed apart in the source
# [62] = target: looped/cyclic peptide … (rabies virus strain ERA); remark: listed apart in the source
# [63] = target: looped/cyclic peptide … (rabies virus strain ERA); remark: listed apart in the source
# [64] = target: looped/cyclic peptide … (rabies virus strain ERA); remark: listed apart in the source
# [65] = target: looped/cyclic peptide … (rabies virus strain ERA); remark: listed apart in the source
# [66] = target: looped/cyclic peptide … (rabies virus strain ERA); remark: listed apart in the source
# [67] = target: looped/cyclic peptide … (rabies virus strain ERA); remark: listed apart in the source
# [68] = target: looped/cyclic peptide … (rabies virus strain ERA); remark: listed apart in the source
# [69] = target: looped/cyclic peptide … (rabies virus strain ERA); remark: listed apart in the source
# [70] = target: looped/cyclic peptide … (rabies virus strain ERA); remark: listed apart in the source
# [71] = target: looped/cyclic peptide … (rabies virus strain ERA); remark: listed apart in the source
# [72] = target: looped/cyclic peptide … (rabies virus strain ERA); remark: listed apart in the source
# [73] = target: looped/cyclic peptide … (rabies virus strain ERA); remark: listed apart in the source
# [74] = target: looped/cyclic peptide … (rabies virus strain ERA); remark: listed apart in the source
# [75] = target: looped/cyclic peptide … (rabies virus strain ERA); remark: listed apart in the source
binder,measurement,setting,value
"human monoclonal antibody CRJB (antibody, V domains shown) VH: QITLKETGPTLVKPTQTLTLTCTFSGFSLSTSGVGVGWIRQPPGKALEWVTLIYWDDDKRYSPSLENRVTIRKDTSKNQVALTMTNMDPLDTGTYYCAHRQHISSFPWFDSWGQGTLVTVSS VL: SYVLTQPPSVSVAPGKTARINCGGNNIEYRSVHWYQQKSGQAPVAVIYDNSDRPSGIPERFSGSKSGNTATLTISRVEAGDEADYYCQVWDISSDVVFGGGTKLTVLG",OD value,[1],75 OD
same,OD value,[2],84 OD
same,OD value,[3],99 OD
same,OD value,[4],89 OD
same,OD value,[5],54 OD
same,OD value,[6],65 OD
same,OD value,[7],64 OD
same,OD value,[8],70 OD
same,OD value,[9],138 OD
same,OD value,[10],45 OD
same,OD value,[11],74 OD
same,OD value,[12],80 OD
same,OD value,[13],75 OD
same,OD value,[14],91 OD
same,OD value,[15],80 OD
same,OD value,[16],100 OD
same,OD value,[17],62 OD
same,OD value,[18],71 OD
same,OD value,[19],88 OD
same,OD value,[20],68 OD
same,OD value,[21],68 OD
same,OD value,[22],83 OD
same,OD value,[23],68 OD
same,OD value,[24],90 OD
same,OD value,[25],83 OD
same,OD value,[26],58 OD
same,OD value,[27],93 OD
same,OD value,[28],73 OD
same,OD value,[29],78 OD
same,OD value,[30],76 OD
same,OD value,[31],71 OD
same,OD value,[32],101 OD
same,OD value,[33],60 OD
same,OD value,[34],60 OD
same,OD value,[35],92 OD
same,OD value,[36],99 OD
same,OD value,[37],58 OD
same,OD value,[38],88 OD
same,OD value,[39],73 OD
same,OD value,[40],68 OD
same,OD value,[41],71 OD
same,OD value,[42],85 OD
same,OD value,[43],69 OD
same,OD value,[44],92 OD
same,OD value,[45],60 OD
same,OD value,[46],69 OD
same,OD value,[47],74 OD
same,OD value,[48],83 OD
same,OD value,[49],82 OD
same,OD value,[50],83 OD
same,OD value,[51],65 OD
same,OD value,[52],93 OD
same,OD value,[53],83 OD
same,OD value,[54],104 OD
same,OD value,[55],107 OD
same,OD value,[56],60 OD
same,OD value,[57],60 OD
same,OD value,[58],51 OD
same,OD value,[59],68 OD
same,OD value,[60],78 OD
same,OD value,[61],63 OD
same,OD value,[62],86 OD
same,OD value,[63],33 OD
same,OD value,[64],78 OD
same,OD value,[65],72 OD
same,OD value,[66],68 OD
same,OD value,[67],118 OD
same,OD value,[68],96 OD
same,OD value,[69],72 OD
same,OD value,[70],73 OD
same,OD value,[71],46 OD
same,OD value,[72],72 OD
same,OD value,[73],72 OD
same,OD value,[74],85 OD
same,OD value,[75],92 OD
